Assay [1] has as its target human fibroblast activation protein (FAP) on WI-38 fibroblasts (human) (UniProt Q12884). Briefly: competitive FACS, WI-38 cells, Cy5-labeled peptide as competitor.
In assay [2] the target is mu (MOP) (h) (human) (UniProt P35372). Kind of assay: reference compound of the radioligand binding assay (Ki Ref).
For assay [3], the target named is fibroblast activation protein (FAP) on FAP-expressing human WI-38 fibroblasts (human) (UniProt Q12884). Briefly: competitive FACS, WI-38 cells, vs Cy5 tracer m3; D = pIC50 <=6.0.
The target of assay [4] is delta (DOP) (h) (human) (UniProt P41143). Kind of assay: reference compound of the radioligand binding assay (Ki Ref).
Assay [5] concerns the target human fibroblast activating protein (FAP) on WI-38 fibroblasts (human) (UniProt Q12884). Briefly: competitive FACS on WI-38 cells vs 3 nM Cy5-labeled peptide; pIC50 category D = ≤6.0.

Chain of mu (MOP) (h) (human) (P35372 whole entry): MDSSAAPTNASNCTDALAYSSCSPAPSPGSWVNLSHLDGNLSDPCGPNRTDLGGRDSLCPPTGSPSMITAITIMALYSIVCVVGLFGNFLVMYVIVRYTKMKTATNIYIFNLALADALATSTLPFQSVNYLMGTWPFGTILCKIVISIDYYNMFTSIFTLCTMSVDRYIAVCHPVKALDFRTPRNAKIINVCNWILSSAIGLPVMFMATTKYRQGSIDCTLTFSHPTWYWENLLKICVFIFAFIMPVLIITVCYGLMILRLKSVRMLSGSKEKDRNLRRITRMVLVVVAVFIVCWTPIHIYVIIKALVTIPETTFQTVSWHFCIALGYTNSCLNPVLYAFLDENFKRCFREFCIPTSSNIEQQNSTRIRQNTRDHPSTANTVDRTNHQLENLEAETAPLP
Chain of delta (DOP) (h) (human) (P41143 whole entry, stated change not applied): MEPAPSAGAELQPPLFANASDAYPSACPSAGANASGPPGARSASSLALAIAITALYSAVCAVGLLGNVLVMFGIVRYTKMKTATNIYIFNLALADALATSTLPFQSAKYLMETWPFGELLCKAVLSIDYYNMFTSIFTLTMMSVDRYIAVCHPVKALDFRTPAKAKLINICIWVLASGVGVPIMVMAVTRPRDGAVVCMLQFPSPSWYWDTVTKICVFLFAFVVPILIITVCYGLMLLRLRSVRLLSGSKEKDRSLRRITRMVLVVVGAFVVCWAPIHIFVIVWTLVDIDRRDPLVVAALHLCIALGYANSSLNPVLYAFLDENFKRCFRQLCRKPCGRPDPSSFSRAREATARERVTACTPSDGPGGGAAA

As for “Ac-Aad-[Cys(3MeBn)-Pro-Pro-Thr-Gln-Phe-Cys]-NH2 (peptide)”, the pIC50 Category (FACS) in assay [1] is < 6 pIC50.
In assay [2], DAMGO (peptide) had an inhibition constant (Ki) of 0.37 nM.
On to “DOTA-Ttds-Hci-[Cys(3MeBn)-Pro-Pro-Thr-Gln-Phe-Cys]-Bal-OH (peptide)”, for which the pIC50 Category (FACS) in assay [3] is < 6 pIC50.
DPDPE (peptide) displayed a Ki in assay [4] of 1.2 nM.
For “H-Ahx-[Cys(3MeBn)-Pro-Pro-Thr-Gln-Phe-Cys]-NH2 (peptide)”, in assay [1], the pIC50 Category (FACS) was < 6 pIC50.
“H-Ava-[Cys(3MeBn)-Pro-Pro-Thr-Gln-Phe-Cys]-NH2 (peptide)”: the pIC50 Category (FACS) in assay [1] was < 6 pIC50.
“H-Gab-[Cys(3MeBn)-Pro-Pro-Thr-Gln-Phe-Cys]-NH2 (peptide)”: the pIC50 Category (FACS) in assay [1] is < 6 pIC50.
Turning to “N4Ac-PPAc-Bal--Nle-[C(3MeBn)-PPTEFC]-OH (peptide)”, the pIC50 in assay [5] is < 6 pic50.
As to “N4Ac-Ttds-Glu(AGLU′)-Nle-[Cys-(3MeBn)-Pro-Pro-Thr-Gln-Phe-Cys]-OH (peptide)”, the pIC50 Category (FACS) in assay [1] was < 6 pIC50.
With “N4Ac-gGlu-Nle-[Cys-(3MeBn)-Pro-Pro-Thr-Gln-Phe-Cys]-OH (peptide)”, in assay [1], the pIC50 Category (FACS) is < 6 pIC50.

What is called Ki is a measure of affinity in units of concentration, obtained from inhibition or displacement. Read a low Ki as higher affinity.

The record behind these values is patent US20230212549A1, “COMPOUNDS COMPRISING A […] LIGAND AND USE THEREOF” (priority 2021, published 2023).
